This experiment has as its target recombinant SARS-CoV-2 wildtype Wuhan-Hu-1 S ectodomain trimer (SARS-CoV-2, Wuhan-Hu-1, UniProt P0DTC2). As to the kind of experiment: ELISA. The note with it: both partners purified. Background: An ELISA detects its analyte on a solid surface through an enzyme-linked reagent.

B1: S2L20 mAb (antibody, V domains shown)
VH: EVQLVESGGGVVQPGGSLRLSCAASGFTFNSYGMHWVRQAPGKGLEWVAFIRYDGGNKYYADSVKGRFTISRDNSKNTLYLQMKSLRAEDTAVYYCANLKDSRYSGSYYDYWGQGTLVTVS
VL: not shown
notes: copies: 2 + 2
With B1, the binding result is “binds”.

B2: S2X303 mAb (antibody, V domains shown)
VH: QITLKESGPTLVKPTQTLTLTCKLSGFSVNTGGVGVGWIRQPPGKALEWLALIYWNDDKLYSPSLKSRLTVTKDTSKNQVVLTMTNMDPVDTATYYCAHVLVWFGEVLPDAFDVWGQGTMVTVSS
VL: SYELTQPPSVSVSPGQTASITCSGDKLGETYASWYQQKPGQSPILVIYQDNKRPSGIPERFSGSNSENTATLTISGTQTMDEADYYCQAWDKTIAGFGGGTKLTV
notes: copies: 2 + 2
Turning to B2, the binding result is reported as “binds”.

The values are drawn from paper PMC12240541 (Science (New York, N.Y.), 2021).
